One block for each molecule: values may come before it.
Tests used:
[1] = target: T1, SyCS (Synechocystis sp. PCC 6803, UniProt Q59977); experiment: DTNB assay at A412, relative activity; assay type: biochemical; settings: read-out: % activity at 5 mM
T1 construct: gene gltA; full-length gltA (synthesized) in pGEX5X-1, GST-tagged, tag not reported cut; expressed in E. coli DH5alpha, glutathione-Sepharose purified
T1 sequence (Q59977 1-397): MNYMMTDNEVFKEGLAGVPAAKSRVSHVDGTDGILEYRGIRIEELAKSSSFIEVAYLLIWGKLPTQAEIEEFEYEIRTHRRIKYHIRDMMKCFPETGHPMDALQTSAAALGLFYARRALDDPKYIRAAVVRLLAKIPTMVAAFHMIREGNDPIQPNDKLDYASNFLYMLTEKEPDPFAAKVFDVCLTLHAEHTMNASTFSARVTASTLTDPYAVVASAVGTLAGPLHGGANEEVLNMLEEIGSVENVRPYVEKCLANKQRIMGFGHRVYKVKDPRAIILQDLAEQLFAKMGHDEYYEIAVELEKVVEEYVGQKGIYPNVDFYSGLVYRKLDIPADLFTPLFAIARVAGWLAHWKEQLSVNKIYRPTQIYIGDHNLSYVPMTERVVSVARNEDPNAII

[2] = target: T1, SyCS; experiment: DTNB assay at A412, residual activity; assay type: biochemical; settings: read-out: % activity at 5 mM
[3] = substrate: CC(=O)SCCNC(=O)CCNC(=O)[C@H](O)C(C)(C)COP(=O)(O)OP(=O)(O)OC[C@H]1O[C@@H](n2cnc3c(N)ncnc32)[C@H](O)[C@@H]1OP(=O)(O)O; experiment: DTNB assay at A412, Lineweaver-Burk; assay type: biochemical, Synechocystis sp. PCC 6803; settings: oxaloacetate 1 mM, no effector, 50 mM Tris-HCl pH 7.5, 37 °C, GST-tagged enzyme
Excerpt: (§1) DTNB assay at […], Lineweaver-Burk on SyCS

[4] = substrate: O=C(O)CC(=O)C(=O)O; experiment: DTNB assay at A412, Lineweaver-Burk; assay type: biochemical, Synechocystis sp. PCC 6803; settings: acetyl-CoA 0.5 mM, no effector, 50 mM Tris-HCl pH 7.5, 37 °C, GST-tagged enzyme
Excerpt: as §1

Molecule: Nc1ncnc2c1ncn2[C@@H]1O[C@H](COP(=O)(O)OP(=O)(O)O)[C@@H](O)[C@H]1O [ADP]
activity at 5000 µM [1]: 369%

B1: SyCS (Synechocystis sp. PCC 6803 substr. Kazusa) (protein)
chain: T1 sequence (Q59977 1-397)
notes: full-length gltA (synthesized) in pGEX5X-1, GST-tagged, tag not reported cut; expressed in E. coli DH5alpha, glutathione-Sepharose purified
Km [3]: 220 ± 77 µM | kcat [3]: 2.51 ± 0.24 s⁻¹ | kcat/Km [3]: 12100 ± 2950 M⁻¹ s⁻¹ | Km [4]: 91 ± 11 µM | kcat [4]: 2.76 ± 0.26 s⁻¹ | kcat/Km [4]: 30500 ± 3170 M⁻¹ s⁻¹

Second part, the molecule after the results:

activity at 5000 µM [2]: 14%
Molecule: C=C(OP(=O)(O)O)C(=O)O [phosphoenolpyruvate]

activity at 5000 µM [2]: 2%
Molecule: O=C(O)CCC(=O)C(=O)O [2-oxoglutarate]

Source: article PMC6465352 (Scientific Reports, 2019)
